Source: patent US20220251221A1 (AGENCY FOR SCIENCE TECHNOLOGY AND RESEARCH, published 2022)

Columns and labels:
recombinant γc-Fc = biological target: T1, recombinant γc-Fc (Homo sapiens (Human), UniProt P31785 23-262); assay: ELISA on coated γc-Fc ('Binding to IL-2RG (Fc)'), biotinylated antibody, streptavidin-HRP, the axis is [Ab]/nM
T1 construct: also called CD132-Fc; not shown: Fc part of the fusion not described
T1 sequence: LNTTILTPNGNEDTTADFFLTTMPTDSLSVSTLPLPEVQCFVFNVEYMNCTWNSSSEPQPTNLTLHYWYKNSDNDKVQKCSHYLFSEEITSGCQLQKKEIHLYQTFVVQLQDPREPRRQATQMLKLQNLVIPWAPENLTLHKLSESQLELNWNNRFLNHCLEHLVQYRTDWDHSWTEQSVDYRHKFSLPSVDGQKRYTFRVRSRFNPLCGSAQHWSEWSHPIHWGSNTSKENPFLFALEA
Experimental: (§1) Binding of P2C4/P1A3 to IL-2Rβ or γc was measured by ELISA analysis, using recombinant IL-2Rβ-Fc and γc-Fc coated on maxisorp plates.
(§2) Biotinylated P2C4/P1A3 was added at various concentrations. Detection of binding was performed using a colorimetric assay using HRP-conjugated streptavidin which converts TMB substrate to a blue solution. The reaction was stopped using hydrochloric acid, and absorbance was measured at 450 nm and 670 nm.

recombinant IL-2Rβ-Fc = biological target: T2, recombinant IL-2Rβ-Fc (Homo sapiens (Human), UniProt P14784 27-240); assay: ELISA on coated IL-2Rβ-Fc ('Binding to IL-2RB (Fc)'), biotinylated antibody, streptavidin-HRP, the axis is [Ab]/nM
T2 construct: also called CD122-Fc; not shown: Fc part of the fusion not described
T2 sequence: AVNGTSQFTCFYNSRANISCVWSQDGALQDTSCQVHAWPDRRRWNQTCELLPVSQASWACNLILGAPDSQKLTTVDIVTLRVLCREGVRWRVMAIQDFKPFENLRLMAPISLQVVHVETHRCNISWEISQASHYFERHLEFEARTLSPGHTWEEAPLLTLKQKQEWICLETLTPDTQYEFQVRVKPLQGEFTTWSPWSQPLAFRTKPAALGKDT
Experimental: as §1, §2

monomeric γc = biological target: T3, monomeric γc (Homo sapiens (Human), UniProt P31785 23-262, limits assumed); assay: BLI, antibody captured on anti-human Fc biosensor tips, monomeric γc in solution, 1:1 Langmuir fit
T3 construct: Neither the limits nor the species of the construct are stated; also called CD132; common γ chain
T3 sequence: T1 sequence
Experimental: (§3) The affinity of binding of P2C4/P1A3 and P2C4/P1A10 to IL-2Rβ and γc was measured by Bio-Layer Interferometry (BLI).
(§4) P2C4/P1A3 or P2C4/P1A10 were captured on anti-human Fc biosensor tips, and 5 different concentrations of monomeric IL-2Rβ or γc were allowed to bind to the captured antibodies. Dissociation of the antigen from the immobilised antibodies was performed for 5 min. Binding affinity was calculated by fitting binding curves using the 1:1 Langmuir model.

monomeric IL-2Rβ = biological target: T4, monomeric IL-2Rβ (Homo sapiens (Human), UniProt P14784 27-240, limits assumed); assay: BLI, antibody captured on anti-human Fc biosensor tips, monomeric IL-2Rβ in solution, 1:1 Langmuir fit
T4 construct: Neither the limits nor the species of the construct are stated; also called CD122
T4 sequence: T2 sequence
Experimental: as §3, §4

B1: P2C4/P1A3 Crossmab (bispecific antibody, V domains shown)
VH 1: EVQLVQSGAEVKKPGSSVKVSCKASGYTFTNYYMHWVRQAPGQGLEWMGAIMPSRGGTSYPQKFQGRVTMTGDTSTSTVYMELSSLRSEDTAVYYCARGEYYYDSSGYYYWGQGTLVTVSS
VL 1: QSALTQPASVSGSPGQSIAISCTGTSSDIGHYDFVSWYQQHPGTAPKLIIYDINNRPSGISNRFSGSKSDNMASLTISGLQPEDEADYYCSAYTSSDTLVFGGGTKLTVL
VH 2: QVQLQQWGAGLLKPSETLSLTCAVYGGSFSGYYWSWIRQPPGKGLEWIGEINHSGSTNYNPSLKSRATISVDTSKNQFSLKLSSVTAADTAVYYCATSPGGYSGGYFQHWGQGTLVTVSS
VL 2: not shown
modifications: Biotinylated for the ELISA; site not given.
notes: also called Fab (P2C4): Fab (P1A3) in CrossMab format; copies: 1 + 1 + 1 + 1
- EC50 (recombinant γc-Fc): 21.2 nM
- EC50 (recombinant IL-2Rβ-Fc): 0.772 nM

B2: P2C4/P1A10 bispecific anti-IL-2Rβ/γc antibody, scFv-KiH-Fc format (bispecific antibody)
chain 1: not shown
chain 2: QVQLQQSGAEVKKPGSSVKVSCKASGGTFSSYAISWVRQAPGQGLEWMGGFDPEDGETIYAQKFQGRVTMTEDTSTDTAYMELSSLRSEDTAVYYCATDLRIPYYYDNPWGQGTLVTVSSGGGGSGGGGSGGGGSEIVLTQSPLSLPVTPGEPASISCRSSQSLLHSNGYNYLNWYLQKPGQSPQLLIYLGSDRASGVPDRFSGSGSGTDFTLKISRVEAEDVGVYYCMQALQTPTTFGGGTKVEIKNSGAGTAAATHTCPPCPAPEAAGGPSVFLFPPKPKDTLMISRTPEVTCVVVDVSHEDPEVKFNWYVDGVEVHNAKTKPREEQYNSTYRVVSVLTVLHQDWLNGKEYKCKVSNKALPAPIEKTISKAKGQPREPQVCTLPPSRDELTKNQVSLSCAVKGFYPSDIAVEWESNGQPENNYKTTPPVLDSDGSFFLVSKLTVDKSRWQQGNVFSCSVMHEALHNHYTQKSLSLSPGK
- Kd (monomeric γc): 61.8 nM
- koff (monomeric γc): 0.00961 s⁻¹
- kon (monomeric γc): 156000 M⁻¹ s⁻¹
- Kd (monomeric IL-2Rβ): 28.2 nM
- koff (monomeric IL-2Rβ): 0.0044 s⁻¹
- kon (monomeric IL-2Rβ): 156000 M⁻¹ s⁻¹

B3: P2C4_FW2/P1A3_FW2 (bispecific antibody)
chain 1: not shown
chain 2: EVQLVESGGGLVQPGGSLRLSCAASGGSFSGYYWSWVRQAPGKGLEWVSEINHSGSTNYNPSLKSRFTISRDNSKNTLYLQMNSLRAEDTAVYYCARSPGGYSGGYFQHWGQGTLVTVSSGGGGSGGGGSGGGGSDIQMTQSPSSLSASVGDRVTITCRSSQSLLHSNGYNYLDWYQQKPGKAPKLLIYLGSNRDSGVPSRFSGSGSGTDFTLTISSLQPEDFATYYCMQGTHWPWTFGQGTKVEIKNSGAGTAAATHTCPPCPAPEAAGGPSVFLFPPKPKDTLMISRTPEVTCVVVDVSHEDPEVKFNWYVDGVEVHNAKTKPREEQYNSTYRVVSVLTVLHQDWLNGKEYKCKVSNKALPAPIEKTISKAKGQPREPQVCTLPPSRDELTKNQVSLSCAVKGFYPSDIAVEWESNGQPENNYKTTPPVLDSDGSFFLVSKLTVDKSRWQQGNVFSCSVMHEALHNHYTQKSLSLSPGK
modifications: Biotinylated for the ELISA; site not given.
notes: also called scFv (P2C4_FW2): scFv (P1A3_FW2)-KiH-Fc
- EC50 (recombinant γc-Fc): 48.8 nM
- EC50 (recombinant IL-2Rβ-Fc): 1.92 nM
